Measured values published in article PMC3913127 (Nature immunology, 2012).

Biological target: …-loaded H-2D^d (mouse | )
Assay: SPR

B1: Ly49A EC (entire extracellular domain of Ly49A, residues 67-262) (receptor, mouse (C57BL/6), UniProt P20937 67-262, looked up)
chain: KIFQYDQQKNCEEFLNHHNNCSNMQSDINLKDEMLKNKSIECDLLESLNRDQNRLYNKTKTVLDSLQHTGRGDKVYWFCYGMKCYYFVMDRKTWSGCKQACQSSSLSLLKIDDEDELKFLQLVVPSDSCWVGLSYDNKKKDWAWIDNRPSKLALNTGKYNIRDGGCMLLSKTRLDNGNCDQVFICICGKRLDKFPH
modifications: biotin (biotinylated Ly49A EC, captured on streptavidin)
Binder B1 has a Kd of 2.05 ± 0.07 µM, a koff of 0.00338 s⁻¹ and a kon of 1650 M⁻¹ s⁻¹.
